Measured values: the supplement of paper PMC9170038

system: MS2 coat protein; experiment: apparent KD of MS2 coat protein; higher = weaker reporter binding; details: Eterna round: R107; input ligand: arginine 13.2 mM
Procedure, shortened: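 The designed RNA switches were transcribed on-chip from Illumina sequencing clusters. In 100 mM Tris-HCl pH 7.5, 80 mM KCl and 4 mM MgCl2, without or with constant ligand, they were titrated with SNAP-549-labelled MS2 coat protein from 0.7 or 1.5 nM to 3 µM in twofold steps. Apparent KD is the per-design median of normalised cluster binding-curve fits.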

Going from “UACAUAUGCCGAAGGAGCGUGAGAUGCAAAGCAUCAUUCCUCACAUGAGGAUCACCCAUGUCACAGGUAGGUCGCGGCAUAUGUU [ArgBX 3]” to “UGACAUUGCUCAGAUACCAGACGUGAGCAUCAGCCAUGUGCCAACAAGUACAAAAUAAAUGUCCCUUGGCAGCUGAGCAAUGUCU [TheoBX 22 #MS2Left #AlternativeMS2 #Theo22]”, the “apparent KD of MS2 coat protein” value falls from 94.3 nM to 18.5 nM (5.1-fold).

“CGGCUCAUAAUGGAUACCAGUCCAGCAUAGAAACCUUGACACAUGAGGAUCACCCAUGUUGACCCUUGGCAGCCAUUGAUCAUAC [theeternabot_exclusion_MS2_Theo_B_28]” and “AGCUCGCAUCCUCAAGCGUCAAAGACGCGUCGAGGACCGGUACGGCCGCCACUCGACCUGAGGAACACCCAGGUCCUCGCGAGCA [TrypAX 7 #SwitchBubble #AlternativeMS2 #MS2Late #CuTurnoff]” are within 1.5-fold of each other in “apparent KD of MS2 coat protein” value: 23.1 nM for the first, 20.7 nM for the second.

“UAAUCCGGUCCUCGAUAACAUGGGUGAAUACGAGGACCGGUACGGCCGCCACUCGAUAACAUGAGGAUCACCCAUGUAAUAAUAA [|T'-M'-Trp-Ms2|_Design15]” and “UUGUAUAUGCGAAGGAGCGGGAAAUAUAUAUAUAUAAUCCUAACAUGAGGAUCACCCAUGUCCCAGGUAGGUCGCGCAUAUGUGG [12.G]” are within 1.5-fold of each other in “apparent KD of MS2 coat protein” value: 38.2 nM for the first, 34.6 nM for the second.

First: ACAUGAGGAUCACCCAUGUCAGGGCACGAUACCAGCUGAUCCGAUGGCCCUUGGCAGCGUGACGUGUGGUCAUGAGGAUCACCCG [kvfmullin]
Second: AUACAUGAGGAUCACCCAUGUUAUAGUGAAGGAGCGACAUUUAGGUCAGGUAGGUCGCACUAUAGUAUUAUAAUUCUUAGUUCUU [JR_ExcArginiA_Sub018]
The “apparent KD of MS2 coat protein” value of the first is 9.5-fold higher: 139 nM for the first, 14.7 nM for the second.

Compared with “CCAUAAGUACCGGUCCUCAGAUCCUCAUGACGAGGACCGGUACGGCCGCCACUCGAAACAUGAGGAUCACCCAUGUAAUAAUACC [Brourdmod18]”, “CCGCACAUGAGGAUCACCCAUGUCAGGGAUACCAGCCCAGACAUGGGCCCUUGGCAGCCCUGUAGCUGACGAAAGUCAGCAGCGG [Omei Theo A SS A v1]” is 2-fold higher in “apparent KD of MS2 coat protein” value: 26.4 nM for the first, 51.9 nM for the second.

Going from “AUAUUUAACGGAAGGAGCGCGGAAUAAUAAGUGGGUAAACAUGAGGAUCACCCAUGUAAACCGCAGGUAGGUCGCCGAAUAAUAA [AstrosEXyARgB#4]” to “GCUACACAGGACCGUACUAAGGAUUCGCCUCGAGGACCGGUACGGCCGCCACUCGUUGCGCGACAUGAGGAUCACCCAUGUGUUC [theeternabot_exclusion_MS2_Trp_A_33]”, the “apparent KD of MS2 coat protein” value falls from 71 nM to 31.1 nM (2.3-fold).

First: UGUCAGCGAAAGUUGACAUGUCUUACCGGUCGAGGACCGGUACGGCCGCCACUCGAUCACUCGCACAUGAGGAUCACCCAUGUUG [SS Tryp A #21]
Second: AUCAUGGCCAUCGAUACCAGCUACAUGAGGAUCACCCAUGUAAACGGCCCGGUGAGAUGUAGCCCUUGGCAGCGAAGGGUCGAGG [Inenenatti]
The “apparent KD of MS2 coat protein” value of the first is 1.5-fold higher: 21.1 nM for the first, 14 nM for the second.

First: AUGCAUAUCAGAAGGAGCGUCAUUAACAUGAGGAUCACCCAUGUAACAUUGAAUUCGAUGAGACAGGUAGGUCGCUGAAUAGUAA [SS-ArgB26]
Second: ACAUGAGGGCGAAGGAGCGCGUACAUGAGGAUCACCCAUGUCUAUAUCCGUCCGCGUGUAACGCAGGUAGGUCGCGCUGUUAAUU [#14 Exclusion - Arginine B]
The “apparent KD of MS2 coat protein” value of the first is 1.7-fold higher: 26.6 nM for the first, 15.4 nM for the second.

“UUCGUUUGCGGAAGGAGCGACGGACAUCGGUGACCCACGCACAUGAGGAUCACCCAUGUACGUCAGGUAGGUCGCCGCUAAGAGU [XArg-B4]” and “AACAUGAGGAUCACCCAUGUUCUCGUGUACCGAGGACCGGUACGGCCGCCACUCGGUUCUCGCGAGGAUGGUCAAAGACUAUCCA [Omei Trp A SS B v5]” are within 1.5-fold of each other in “apparent KD of MS2 coat protein” value: 20.3 nM for the first, 22.6 nM for the second.

First: GGACUAACCAGAAGGAGCGACGCAAGCAGAAACUGCAAUCCUCCGCACGAGGAUCACCCGUGUCAGGUAGGUCGCUGGUUAGUCG [ArgBX 28]
Second: UGUAACAUGAGGAUCACCCAUGUGAGUGAUACCAGACUAGUGUUGGUCCCUUGGCAGCACGCUGGACGAAUGUGUAGUCUAUGCG [Same State - Theophylline A (Freestyle 18)]
The “apparent KD of MS2 coat protein” value of the first is 2.8-fold lower: 21.6 nM for the first, 59.5 nM for the second.

First: GGCACAUGUGGAAGGAGCGUCGUACGAGCUACAUGAGGAUCACCCAUGUCGGUUAGUGUCCGACAGGUAGGUCGCCACAUUUAAC [Isiser]
Second: CCGGGCUGUGGAGACAUAGCCCGGACUGAAGGAGCGGGAAUAAACCCAGGUAGGUCGCAGAGAUCCACAUGAGGAUCACCCAUGU [!0.S]
The “apparent KD of MS2 coat protein” value of the first is 3.3-fold higher: 114 nM for the first, 34.4 nM for the second.

“UGGAGUAUCAGACAUGAGGAUCACCCAUGUCGAGGACCGGUACGGCCGCCACUCGGCAGUUUGCGUCCUCAGGUACUCCGGGUAA [Edlatearis]” and “AGAUUACAUGUUUUAAUAAGAUAAACUGAUACCAGUGUAUAUAUUCACCCUUGGCAGCAGCAACAUGAGGAUCACCCAUGUAUUA [JR_SSTheophyA_Sub015]” are within 1.5-fold of each other in “apparent KD of MS2 coat protein” value: 16.8 nM for the first, 14.4 nM for the second.

Compared with “UGGGUAGCAUAGAUUGAUAGCUACACUGAAGGAGCGAGGAUAACCUCAGGUAGGUCGCAGACAUGAGGAUCACCCAUGUAGAUGG [Same State Arginine A GF17]”, “UCGCUCUGGGUGAGUUCCGGAGAUGUGGAAGGAGCGCUCGAAAGAGCAGGUAGGUCGCCAACGGACAUGAGGAUCACCCAUGUAC [Same State - Arginine A (Freestyle 21)]” is 2.3-fold lower in “apparent KD of MS2 coat protein” value: 77.7 nM for the first, 33.8 nM for the second.

Compared with “AGCCGGAUUACGGCCGCCACUGUAGACGUGACGAAAGUCGCGUCAACAUGAGGAUCACCCAUGUACAGGACCGGGUGGUCGGGCG [Omei Tryp B SS A v5]”, “CUCAUCCACGCGGCCGCCACUAUAUUGUGGUGCGAAUGUGUCGUAAUACAUGAGGAUCACCCAUGUAGGACCGGGCGUGGAUGAG [#09 Exclusion Tryptophan B]” is 7.2-fold lower in “apparent KD of MS2 coat protein” value: 74.1 nM for the first, 10.3 nM for the second.

“ACGAUACGACAUGAGGAUCACCCAUGUGAUACCAGCCUGGAAACAGGCCCUUGGCAGCACAAAUACUCCAGAAACGUAUCGAAAA [MAT - Exclusion Theophlline A - Mod of Eli - D6]” and “GAGUUCCUGAGAGAUACCAGUGAAGCCACAUGAGGAUCACCCAUGUCCCUCACUCCGGCCCACCCUUGGCAGCUCGAAAGAUGGA [Exclusion Theophylline B GF 21]” are within 1.5-fold of each other in “apparent KD of MS2 coat protein” value: 64.9 nM for the first, 83.7 nM for the second.

First: AUCUCAUAGAGUGAUACCAGACUACAUGAGGAUCACCCAUGUUACAUUUAAAUAUCAUUUGUCCCUUGGCAGCACAUUAAGUACA [JR_Nu_ExcTheophyB_Sub019]
Second: ACGACGCAUAGUGAUACCAGUAGAACAUGAGGAUCACCCAUGUCUGUGACGCACAAAUUCUGCCCUUGGCAGCACUAUGCGUCAG [SSTheo B #6]
The “apparent KD of MS2 coat protein” value of the first is 2-fold higher: 25.6 nM for the first, 12.6 nM for the second.

First: UGGUACUAGGCGGCCGCCACUGGGAGAUACAUGAGGAUCACCCAUGUUUAAUGCCGAGAGGCAACUAGGACCGGGCCUAGUACAU
Second: UCAUUUGAGUGAGAUGUAAGGUAUCAUGAUACCAGUAGAUAAUUAUACCCUUGGCAGCAUAACAUGAGGAUCACCCAUGUACAUG [Ac]
The “apparent KD of MS2 coat protein” value of the first is 3.2-fold higher: 63.6 nM for the first, 20.1 nM for the second.

Going from “AAUGUAUUCCACAUGAGGAUCACCCAUGUGCGAGGACCGGUACGGCCGCCACUCGGUGUUGGGAUCUGUUCUGAAUACAUUAAUG [XTryp A #23]” to “GGGCGCGUGGACUGGCGUGCUCCGCUCCGUCGAGGACCGGUACGGCCGCCACUCGACAUGAGGAUCACCCAUGUGUGCGCUCGCG [#1 Exclusion - Tryptophan A Attempt #18 (HarryS)]”, the “apparent KD of MS2 coat protein” value falls from 30.8 nM to 14.5 nM (2.1-fold).

Compared with “AGCGACAUGCAUGAUACCAGCUACAUGAGGAUCACCCAUGUACGUCAGUAAUGACUGUGUAGCCCUUGGCAGCAUAGAGCAUGUA [Exclusion - Theophylline B (Freestyle 14)]”, “UGUAACAUGAGGAUCACCCAUGUGAGUGAUACCAGACUAGUGUUAGUCCCUUGGCAGCACGCUGGGCGAGUGUGUAGUCUAUGCG [Same State - Theophylline A (Freestyle 16)]” is 3.4-fold higher in “apparent KD of MS2 coat protein” value: 17.7 nM for the first, 60.9 nM for the second.
